In publication PMC2754721 (Biochemistry, 2009):
Where a chain is given by its changes, count along the chain named. Names and notes keep the numbering of the source.

B1: D402N nitroalkane oxidase (enzyme)
chain: MVDFKLSPSQLEARRHAQAFANTVLTKASAEYSTQKDQLSRFQATRPFYREAVRHGLIKAQVPIPLGGTMESLVHESIILEELFAVEPATSITIVATALGLMPVILCDSPSLQEKFLKPFISGEGEPLASLMHSEPNGTANWLQKGGPGLQTTARKVGNEWVISGEKLWPSNSGGWDYKGADLACVVCRVSDDPSKPQDPNVDPATQIAVLLVTRETIANNKKDAYQILGEPELAGHITTSGPHTRFTEFHVPHENLLCTPGLKAQGLVETAFAMSAALVGAMAIGTARAAFEEALVFAKSDTRGGSKHIIEHQSVADKLIDCKIRLETSRLLVWKAVTTLEDEALEWKVKLEMAMQTKIYTTDVAVECVIDAMKAVGMKSYAKDMSFPRLLNEVMCYPLFNGGNIGLRRRQMQRVMALEDYEPWAATYGSSKVDKSRL
B2: S276A nitroalkane oxidase (enzyme)
chain: B1 chain with S276A, N402D

Molecular target: the molecule itself
Assay: crystal structure

Protein | stoichiometry N [subunits]
B1 | 4
B2 | 4
